# Laboratory results as given in patent US20250270287A1 (KEROS THERAPEUTICS, published 2025).
# Changes are numbered by the printed parent chain.
# T1: GDF-11 (UniProt O95390 299-407)
# T1 construct: also called growth and differentiation factor 11
# T1 sequence (looked up): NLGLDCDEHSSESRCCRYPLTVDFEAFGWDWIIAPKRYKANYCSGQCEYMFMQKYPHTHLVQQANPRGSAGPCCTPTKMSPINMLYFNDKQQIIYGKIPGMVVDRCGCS
# T2: Activin A (UniProt P08476 311-426)
# T2 sequence (looked up): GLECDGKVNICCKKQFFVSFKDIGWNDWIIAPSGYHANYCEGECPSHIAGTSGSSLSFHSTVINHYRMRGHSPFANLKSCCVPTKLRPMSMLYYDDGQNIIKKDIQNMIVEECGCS
# T3: growth differentiation factor 8 (GDF-8) (UniProt O14793 267-375)
# T3 construct: also called myostatin
# T3 sequence (looked up): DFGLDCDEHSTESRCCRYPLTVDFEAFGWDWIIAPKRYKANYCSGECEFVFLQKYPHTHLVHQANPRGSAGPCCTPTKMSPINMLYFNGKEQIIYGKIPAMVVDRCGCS
# T4: BMP-10 (UniProt O95393 317-424)
# T4 sequence (looked up): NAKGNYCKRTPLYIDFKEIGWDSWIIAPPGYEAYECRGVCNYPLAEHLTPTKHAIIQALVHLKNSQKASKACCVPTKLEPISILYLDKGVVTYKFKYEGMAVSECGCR
# T5: BMP-9 (UniProt Q9UK05 320-429)
# T5 construct: also called bone morphogenetic protein 9
# T5 sequence (looked up): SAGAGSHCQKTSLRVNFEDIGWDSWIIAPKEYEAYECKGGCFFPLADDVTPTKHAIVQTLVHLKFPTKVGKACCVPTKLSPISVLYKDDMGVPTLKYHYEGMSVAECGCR
# T6: Activin B (UniProt P09529 293-407)
# T6 sequence (looked up): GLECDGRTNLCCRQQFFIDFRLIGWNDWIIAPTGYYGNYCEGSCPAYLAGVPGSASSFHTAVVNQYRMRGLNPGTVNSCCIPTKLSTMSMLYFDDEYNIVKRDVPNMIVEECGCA
# B1: ActRIIB-A8 (SEQ ID NO: 126) chimera-Fc protein (Fc fusion)
# chain: GRGEAETRECIYYNANWELERTNQSGLERCEGEQDKRLHCYASWRNSSGTIELVKKGCWLDDFNCYDRQECVATEENPQVYFCCCEGNFCNERFTHLPEMEVTQPTS
# notes: Tested as chimera-Fc protein; not shown: linker (if any) and Fc domain
# B2: ActRIIB-A6 (SEQ ID NO: 124) chimera-Fc protein (Fc fusion)
# chain: GRGEAETRECIYYNANWELERTNQSGLERCEGEQDKRLHCYASWRNSSGTIELVKKGCWLDDFNCYDRQECVATKDSPEVYFCCCEGNFCNERFTHLPEAGGPEVTYEPPPTAPT
# notes: as for B1
# B3: ActRIIB-A3 (SEQ ID NO: 122) chimera-Fc protein (Fc fusion)
# chain: B2 chain with E31Y, E33D, Q34K, K75E, D76E, S77N, E79Q
# notes: as for B1
# B4: ActRIIB-B1B4 (SEQ ID NO: 117) chimera-Fc protein (Fc fusion)
# chain: B2 chain with I11L, Y12F, Y13F, T50S, L53I, K56Q, K75E, D76E, S77N, E79Q
# notes: as for B1
# B5: ActRIIB-A2 (SEQ ID NO: 121) chimera-Fc protein (Fc fusion)
# chain: B2 chain with L19K, E20D, K75E, D76E, S77N, E79Q
# notes: as for B1
# B6: ActRIIB-A5 (SEQ ID NO: 123) chimera-Fc protein (Fc fusion)
# chain: B2 chain with F63I, Q69T, E70D, K75E, D76E, S77N, E79Q
# notes: as for B1
# B7: ActRIIB-A7 (SEQ ID NO: 125) chimera-Fc protein (Fc fusion)
# chain: B2 chain with K75E, D76E, S77N, E79Q, F89M
# notes: as for B1
# B8: ActRIIB-B5 (SEQ ID NO: 114) chimera-Fc protein (Fc fusion)
# chain: B2 chain with A73E, T74K, K75E, D76E, S77N, E79Q
# notes: as for B1
# B9: ActRIIB-B7 (SEQ ID NO: 115) chimera-Fc protein (Fc fusion)
# chain: B2 chain with K75E, D76E, S77N, E79Q, R93K, T95S, H96Y, L97F
# notes: as for B1
# B10: ActRIIB-B2 (SEQ ID NO: 111) chimera-Fc protein (Fc fusion)
# chain: B2 chain with S25T, L27V, R29P, K75E, D76E, S77N, E79Q
# notes: as for B1
# B11: ActRIIB-B3 (SEQ ID NO: 112) chimera-Fc protein (Fc fusion)
# chain: B2 chain with L38R, Y41F, S43T, R45K, S47I, K75E, D76E, S77N, E79Q
# notes: as for B1
# B12: ActRIIB-B1B7 (SEQ ID NO: 116) chimera-Fc protein (Fc fusion)
# chain: GRGEAETRECLFFNANWELERTNQSGLERCEGEQDKRLHCYASWRNSSGTIELVKKGCWLDDFNCYDRQECVATEENPQVYFCCCEGNFCNEKFSYFPEAGGPEVTYEPPPTAPT
# notes: as for B1
# B13: ActRIIB-B1B2B3B4 (SEQ ID NO: 119) chimera-Fc protein (Fc fusion)
# chain: GRGEAETRECLFFNANWELERTNQTGVEPCEGEQDKRRHCFATWKNISGSIEIVKQGCWLDDFNCYDRQECVATEENPQVYFCCCEGNFCNERFTHLPEAGGPEVTYEPPPTAPT
# notes: as for B1
# B14: ActRIIB (SEQ ID NO: 31) Fc protein (Fc fusion)
# chain: B2 chain with K75E, D76E, S77N, E79Q
# notes: also called ActRII-Fc; wild-type extracellular ActRIIB; not shown: linker (if any) and Fc domain
# B15: ActRIIB-A1 (SEQ ID NO: 120) chimera-Fc protein (Fc fusion, not shown: a dimerising Fc or GST)
# chain: GAILGRSETQECIYYNANWELERTNQSGLERCEGEQDKRLHCYASWRNSSGTIELVKKGCWLDDFNCYDRQECVATEENPQVYFCCCEGNFCNERFTHLPEAGGPEVTYEPPPTAPT
# Biological target: T1, GDF-11
# Assay: SPR (Biacore 8K), Fc protein captured on anti-human IgG, ligand injected
# Method: (§1) The Cytiva Biacore 8k was used to measure the kinetics of the interactions between the ActRII- and chimera-Fc proteins and Activin A/Activin B/growth differentiation factor 8 (GDF-8)/GDF-11/BMP-9/BMP-10. Series S CM4 Sensor Chips were immobilized with anti-human capture antibody using the reagents and protocol in the Biacore Human Antibody Capture Kit (GE Life Sciences). Briefly, anti-human IgG was diluted to 25 μg/mL in immobilization buffer. The carboxylated surface of the sensor was activated by injecting a mixture of EDC and NHS. The anti-human IgG was injected into the activated sensor chip flow cells at 10 μL/min for a total of 7 minutes until the chip reached an immobilization level of 3000 resonance units (RU). Ethanolamine was injected to deactivate the sensor surfaces. The chip has 8 flow cells to be used for binding analysis, each with an in-line reference surface to subtract instrument noise and non-specific binding to the sensor chip. The ActRII- and chimera-Fc proteins were captured in their own flow cell to allow for a maximum analyte binding response of 20-30 RU. This was done by injecting 10-20 μL of the ActRII- and chimera-Fc proteins into the flow cells at a concentration of 2 μg/mL until 60-90 RU was captured. Ligand at a single concentration was injected at […] for 60 seconds and then allowed to dissociate under buffer flow for no less than 5 minutes. After the cycle completed, captured protein was stripped from the chip with an injection of 3 M magnesium chloride, the regeneration buffer provided with the Biacore Human Antibody Capture Kit. Each ligand was injected in a concentration series, including a buffer only 0 nM concentration to serve as a double reference for subtracting out instrument noise. The data were analyzed using the Biacore Insight Evaluation Software.
row,Binder,Kd
1,B1,< 0.001 nM
2,B2,< 0.001 nM
3,B3,< 0.001 nM
4,B4,0.0292 nM
5,B5,< 0.001 nM
6,B6,0.00566 nM
7,B7,< 0.001 nM
8,B8,< 0.001 nM
9,B9,< 0.001 nM
10,B10,< 0.001 nM
11,B11,0.00117 nM
12,B12,< 0.001 nM
13,B13,< 0.001 nM

# Biological target: T2, Activin A
# Assay: as above
# Method: as §1
row,Binder,Kd
1,B1,0.0442 nM
2,B14,0.0106 nM
3,B2,0.0104 nM
4,B3,0.0165 nM
5,B4,0.0108 nM
6,B5,0.0347 nM
7,B6,0.0228 nM
8,B7,0.0169 nM
9,B8,0.00327 nM
10,B9,< 0.001 nM
11,B10,< 0.001 nM
12,B11,0.00152 nM
13,B12,< 0.001 nM
14,B13,0.0066 nM

# Biological target: T3, growth differentiation factor 8 (GDF-8)
# Assay: as above
# Method: as §1
row,Binder,Kd
1,B1,0.00423 nM
2,B2,0.0288 nM
3,B3,< 0.001 nM
4,B4,0.0718 nM
5,B5,0.0393 nM
6,B6,0.0165 nM
7,B7,< 0.001 nM
8,B8,0.0102 nM
9,B9,0.00346 nM
10,B10,< 0.001 nM
11,B11,0.0104 nM
12,B12,0.00353 nM
13,B13,0.00354 nM

# Biological target: T4, BMP-10
# Assay: as above
# Method: as §1
row,Binder,Kd
1,B1,0.0292 nM
2,B2,0.00969 nM
3,B3,0.0159 nM
4,B4,0.0761 nM
5,B5,0.0298 nM
6,B6,0.0152 nM
7,B7,0.00872 nM
8,B8,0.0414 nM
9,B9,< 0.001 nM
10,B10,0.0205 nM
11,B11,0.175 nM
12,B12,0.0156 nM
13,B13,0.369 nM

# Biological target: T5, BMP-9
# Assay: as above
# Method: as §1
row,Binder,Kd
1,B1,0.074 nM
2,B2,0.00962 nM
3,B3,0.0123 nM
4,B4,0.0398 nM
5,B5,0.0166 nM
6,B6,0.143 nM
7,B7,0.0191 nM
8,B8,0.0632 nM
9,B9,0.0202 nM
10,B10,0.00327 nM
11,B11,0.361 nM
12,B12,18.6 nM
13,B13,1.08 nM

# Biological target: T6, Activin B
# Assay: as above
# Method: as §1
row,Binder,Kd
1,B1,< 0.001 nM
2,B14,< 0.001 nM
3,B2,0.001 nM
4,B3,< 0.001 nM
5,B4,0.0702 nM
6,B5,0.00878 nM
7,B6,0.00491 nM
8,B7,< 0.001 nM
9,B8,0.0158 nM
10,B9,< 0.001 nM
11,B10,0.0116 nM
12,B11,0.00581 nM
13,B12,< 0.001 nM
14,B13,0.0197 nM

# Biological target: T1, GDF-11
# Assay: cell-based or functional assay
row,Binder,"IC50, SBE-luciferase reporter in HEK293 cells"
1,B1,0.13 µg/mL
2,B2,0.25 µg/mL
3,B3,0.15 µg/mL
4,B4,0.77 µg/mL
5,B5,0.3 µg/mL
6,B6,0.13 µg/mL
7,B7,0.13 µg/mL
8,B8,0.096 µg/mL
9,B9,0.15 µg/mL
10,B10,0.27 µg/mL
11,B11,0.14 µg/mL
12,B12,0.14 µg/mL
13,B15,0.14 µg/mL
14,B13,0.14 µg/mL

# Biological target: T2, Activin A
# Assay: cell-based or functional assay
row,Binder,"IC50, SBE-luciferase reporter in HEK293 cells"
1,B1,0.23 µg/mL
2,B2,0.089 µg/mL
3,B3,0.056 µg/mL
4,B4,0.35 µg/mL
5,B5,0.078 µg/mL
6,B6,0.057 µg/mL
7,B7,0.057 µg/mL
8,B8,0.069 µg/mL
9,B9,0.067 µg/mL
10,B10,0.14 µg/mL
11,B11,0.07 µg/mL
12,B12,0.094 µg/mL
13,B15,0.075 µg/mL
14,B13,0.13 µg/mL

# Biological target: T5, BMP-9
# Assay: cell-based or functional assay
row,Binder,"IC50, BRE-luciferase reporter in C2C12 cells"
1,B1,3.6 µg/mL
2,B2,0.23 µg/mL
3,B3,0.1 µg/mL
4,B4,0.39 µg/mL
5,B5,0.082 µg/mL
6,B6,0.4 µg/mL
7,B7,0.061 µg/mL
8,B8,0.022 µg/mL
9,B9,0.032 µg/mL
10,B10,0.3 µg/mL
11,B11,0.41 µg/mL
12,B12,0.067 µg/mL
13,B15,0.14 µg/mL
14,B13,0.36 µg/mL

# Biological target: T6, Activin B
# Assay: cell-based or functional assay
row,Binder,"IC50, SBE-luciferase reporter in HEK293 cells"
1,B1,0.052 µg/mL
2,B2,0.14 µg/mL
3,B3,0.075 µg/mL
4,B4,0.34 µg/mL
5,B5,0.13 µg/mL
6,B6,0.072 µg/mL
7,B7,0.073 µg/mL
8,B8,0.11 µg/mL
9,B9,0.12 µg/mL
10,B10,0.17 µg/mL
11,B11,0.096 µg/mL
12,B12,0.18 µg/mL
13,B15,0.072 µg/mL
14,B13,0.086 µg/mL
